Assay results from publication doi:10.1101/2025.10.14.682262.
Residue numbers refer to the chain shown, from its start. Like-named read-outs stand apart in the source and are kept apart here.

T1: PAN (…) WT (Arabidopsis thaliana, UniProt Q9SX27 1-452)
T1 sequence: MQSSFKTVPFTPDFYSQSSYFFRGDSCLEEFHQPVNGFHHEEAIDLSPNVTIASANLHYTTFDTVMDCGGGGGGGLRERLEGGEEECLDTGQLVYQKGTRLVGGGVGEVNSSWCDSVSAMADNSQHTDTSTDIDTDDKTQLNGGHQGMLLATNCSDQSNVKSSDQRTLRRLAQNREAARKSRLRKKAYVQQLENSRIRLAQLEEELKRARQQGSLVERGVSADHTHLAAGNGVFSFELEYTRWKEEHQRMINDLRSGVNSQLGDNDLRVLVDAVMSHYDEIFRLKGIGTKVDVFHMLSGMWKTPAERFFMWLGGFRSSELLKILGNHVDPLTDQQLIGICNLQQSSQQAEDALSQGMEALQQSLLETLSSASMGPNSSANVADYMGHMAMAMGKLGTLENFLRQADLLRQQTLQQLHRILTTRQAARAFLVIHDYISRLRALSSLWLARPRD

T2: PAN 6 Cys to Ser (Arabidopsis thaliana, UniProt Q9SX27 1-452, C27S;C68S;C87S;C114S;C154S;C340S)
T2 sequence: T1 sequence with C27S, C68S, C87S, C114S, C154S, C340S

T3: PAN 5 Cys to Ser (Arabidopsis thaliana, UniProt Q9SX27 1-452, C27S;C68S;C87S;C114S;C154S)
T3 sequence: T1 sequence with C27S, C68S, C87S, C114S, C154S

B1: TGACGT WT probe (dsDNA)
DNA 1: ATCAGATCTAATTGACGTGATAGCATATAGA
DNA 2: TCTATATGCTATCACGTCAATTAGATCTGAT
B2: TGATTT mutated probe (M) (dsDNA)
DNA 1: B1 DNA 1 with C16T, G17T
DNA 2: B1 DNA 2 with C15A, G16A

How the values were obtained:
Test in all cases: EMSA
[1] = biological target: T1, PAN (…) WT
[2] = biological target: T2, PAN 6 Cys to Ser
[3] = biological target: T3, PAN 5 Cys to Ser
[4] = biological target: T1, PAN (…) WT; remark: listed apart in the source

Binder | binding result [1] | binding result [2] | binding result [3] | binding result [4]
B1 | binds | binds | binds | –
B2 | – | – | – | no binding
